Source: IntAct's records for PubMed 19749176

B1: Serine/threonine-protein phosphatase PP1-1 (Saccharomyces cerevisiae), P20604 (parent)
chain: MVSRGPDEWLETIKKCQALTENEMKQLCEMVKELLMEESNIQPVQTPVTVCGDIHGQFHDLLELFRTAGGFPDDINYIFLGDYVDRGYYSLETFTLLMCLKVKYPAKITLVRGNHESRQITQVYGFYEECLNKYGSTTVWKYCCQVFDFLTLAAIIDGKILCVHGGLSPEIRMLDQIRVLSRAQEVPHEGGFSDLLWSDPDNVEAWQVSPRGAGWLFGSKVAREFNHVNGLNLIARAHQLVMEGFKYHFPEKDVVTVWSAPNYCYRCGNVASVMKVDEDLEPTFKIFSAVPDDYIRESTANHNNQRAGYFL
partner: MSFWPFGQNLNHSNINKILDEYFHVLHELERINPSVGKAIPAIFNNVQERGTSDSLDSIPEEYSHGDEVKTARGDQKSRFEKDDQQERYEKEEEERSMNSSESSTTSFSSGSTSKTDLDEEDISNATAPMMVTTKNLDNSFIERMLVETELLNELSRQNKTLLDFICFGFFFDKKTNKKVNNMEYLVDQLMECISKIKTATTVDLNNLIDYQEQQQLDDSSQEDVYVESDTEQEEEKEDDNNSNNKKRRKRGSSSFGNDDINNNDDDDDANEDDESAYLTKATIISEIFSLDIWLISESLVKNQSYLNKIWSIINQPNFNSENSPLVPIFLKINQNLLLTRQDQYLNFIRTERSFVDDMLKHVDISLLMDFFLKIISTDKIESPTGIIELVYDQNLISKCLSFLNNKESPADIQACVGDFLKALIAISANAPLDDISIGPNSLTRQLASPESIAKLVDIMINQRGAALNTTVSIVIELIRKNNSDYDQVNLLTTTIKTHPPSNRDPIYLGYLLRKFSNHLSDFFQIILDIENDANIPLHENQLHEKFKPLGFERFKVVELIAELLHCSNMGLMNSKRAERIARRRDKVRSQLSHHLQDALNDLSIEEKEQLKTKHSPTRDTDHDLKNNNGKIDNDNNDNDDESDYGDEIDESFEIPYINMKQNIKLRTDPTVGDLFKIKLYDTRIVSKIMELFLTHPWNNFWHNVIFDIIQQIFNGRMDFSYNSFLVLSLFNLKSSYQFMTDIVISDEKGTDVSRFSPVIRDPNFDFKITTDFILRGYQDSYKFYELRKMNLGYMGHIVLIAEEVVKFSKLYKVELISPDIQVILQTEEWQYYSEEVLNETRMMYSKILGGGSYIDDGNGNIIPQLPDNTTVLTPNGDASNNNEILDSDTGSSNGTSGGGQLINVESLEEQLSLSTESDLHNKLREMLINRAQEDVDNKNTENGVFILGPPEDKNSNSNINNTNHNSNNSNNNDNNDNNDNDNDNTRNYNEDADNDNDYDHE
B2: Serine/threonine-protein phosphatase PP1-1 (Saccharomyces cerevisiae), P20604 (parent)
chain: B1 chain
partner: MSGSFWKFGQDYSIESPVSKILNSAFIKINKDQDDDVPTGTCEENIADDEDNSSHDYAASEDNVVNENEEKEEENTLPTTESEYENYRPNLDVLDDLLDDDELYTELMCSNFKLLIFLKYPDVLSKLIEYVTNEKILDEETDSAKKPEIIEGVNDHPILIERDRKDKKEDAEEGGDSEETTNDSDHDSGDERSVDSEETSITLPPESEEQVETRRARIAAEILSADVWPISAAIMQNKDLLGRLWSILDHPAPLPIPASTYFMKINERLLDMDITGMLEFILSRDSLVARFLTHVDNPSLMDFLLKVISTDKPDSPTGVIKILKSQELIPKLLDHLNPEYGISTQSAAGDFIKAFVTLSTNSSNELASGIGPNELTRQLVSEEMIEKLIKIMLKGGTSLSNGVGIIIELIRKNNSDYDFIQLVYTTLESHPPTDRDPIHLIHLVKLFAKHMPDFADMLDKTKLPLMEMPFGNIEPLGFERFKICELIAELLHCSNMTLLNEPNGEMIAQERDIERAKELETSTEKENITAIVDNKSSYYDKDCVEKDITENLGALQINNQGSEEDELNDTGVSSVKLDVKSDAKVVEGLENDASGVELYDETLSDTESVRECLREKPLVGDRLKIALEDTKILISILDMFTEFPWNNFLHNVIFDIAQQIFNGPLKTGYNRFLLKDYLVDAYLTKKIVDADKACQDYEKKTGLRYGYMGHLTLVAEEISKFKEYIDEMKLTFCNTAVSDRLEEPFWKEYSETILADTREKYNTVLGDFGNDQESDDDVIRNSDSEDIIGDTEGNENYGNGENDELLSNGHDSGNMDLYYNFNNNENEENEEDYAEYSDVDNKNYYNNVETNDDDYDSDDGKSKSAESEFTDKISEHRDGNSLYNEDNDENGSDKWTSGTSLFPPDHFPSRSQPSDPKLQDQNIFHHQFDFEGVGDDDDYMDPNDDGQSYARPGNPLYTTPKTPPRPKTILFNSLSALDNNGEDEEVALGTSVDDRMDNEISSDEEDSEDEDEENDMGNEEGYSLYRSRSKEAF

Variants of: B1
Settings: with sa155_yeast SAP155, P43612

Variant	effect of a mutation on the interaction
E37A;E38A	decreasing interaction

Variants of: B2
Settings: with sa190_yeast SAP190, P36123

Variant	effect of a mutation on the interaction
E37A;E38A	decreasing interaction
